The record followed here is patent US20090214427.

The subject of data set [1] is synthetic peptide HK2p01 (SRFKVWWAAG).
The test system of data set [2] is synthetic peptide HK2p03 (PARRPFPVTA).
In data set [3] the test system is synthetic peptide HK2p02 (AARRPFPAPS).
The subject of data set [4] is synthetic peptide HK2p04 (CFRQGCWVIT).
For data set [5], the system named is synthetic peptide HK2p06 (CYRMPTCMQRD).

plasma kallikrein, sequence (chain, as listed by the source): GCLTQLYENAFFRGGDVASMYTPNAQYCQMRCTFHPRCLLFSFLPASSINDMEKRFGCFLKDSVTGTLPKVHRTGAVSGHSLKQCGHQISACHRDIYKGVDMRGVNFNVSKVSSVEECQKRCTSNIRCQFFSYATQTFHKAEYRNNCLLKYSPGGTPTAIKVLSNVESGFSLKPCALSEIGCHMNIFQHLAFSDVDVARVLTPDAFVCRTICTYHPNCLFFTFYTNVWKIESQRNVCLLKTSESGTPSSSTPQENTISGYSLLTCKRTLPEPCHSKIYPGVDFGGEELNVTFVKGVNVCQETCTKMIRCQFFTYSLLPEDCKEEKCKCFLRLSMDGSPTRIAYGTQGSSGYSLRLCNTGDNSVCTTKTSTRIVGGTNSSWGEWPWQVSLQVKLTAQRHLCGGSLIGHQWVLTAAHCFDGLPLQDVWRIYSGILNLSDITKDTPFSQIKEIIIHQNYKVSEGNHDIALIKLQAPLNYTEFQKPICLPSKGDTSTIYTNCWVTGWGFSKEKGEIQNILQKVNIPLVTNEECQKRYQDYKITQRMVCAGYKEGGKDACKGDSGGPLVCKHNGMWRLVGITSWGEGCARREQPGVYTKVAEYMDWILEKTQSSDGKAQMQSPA

Regarding prostate specific antigen, the “enzyme activity (chromogenic substrate)” value in data set [1], in data set [2] and in data set [3] was “showed no inhibition” in each case.

For the substance α-chymotrypsin, the “enzyme activity (chromogenic substrate)” value in data set [1], in data set [2] and in data set [3] was “showed no inhibition” in each case.

For plasma kallikrein, the “enzyme activity (chromogenic substrate)” value in data set [1], in data set [2] and in data set [3] was “showed no inhibition” throughout.

In the case of “recombinant wild-type (wt) human kallikrein 2”, the “enzyme activity of hK2 (chromogenic substrate S-2302)” value is on record as “caused a significant reduction of the enzyme activity” in data set [1]; “caused a significant reduction of the enzyme activity” in data set [2]; “caused a significant reduction of the enzyme activity” in data set [3]; “did not show any effect on the enzyme activity of hK2” in data set [4]; “did not show any effect on the enzyme activity of hK2” in data set [5].

For the substance urokinase, the “enzyme activity (chromogenic substrate)” value in data set [1], in data set [2] and in data set [3] was “showed no inhibition” each time.

Regarding thrombin, the “enzyme activity (chromogenic substrate)” value in data set [1], in data set [2] and in data set [3] was “showed no inhibition” in each case.
